The supplement of paper PMC10567573

B1: FAM46C (parent)
chain: FDHLQNRLIATKNPEEIRGGGLLK
B2: SLC35F2 (parent)
chain: QYLAERYKVNTPMLQSFINYCLLF

Variants of: B1
Test: protein stability index of a GFP-peptide fusion (GPS, HEK-293T) (PSI 1-6); higher = more stable
Conditions: c terminus: a fixed tail appended
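Note: lentivirally expressed fusions sorted by FACS into six bins by GFP to DsRed ratio, PSI derived from sequencing read proportions per bin multiplied by bin number.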

Protein stability index, by site and new letter:
G21: M 3.25 | S 4.06 | Y 3.21 | V 3.53 | W 2.28 | C 3.29 | P 3.91 | L 2.61 | R 3.47 | Q 3.41 | H 3.94 | D 4 | F 2.82 | K 4.26 | A 3.69 | I 2.92 | T 4.07 | N 4.51 | E 3.93
G20: L 4.19 | D 4.05 | M 2.76 | K 3.98 | R 4.03 | P 3.6 | N 3.74 | W 3.16 | F 2.77 | T 3.51 | C 3.21 | Y 2.85 | H 3.72 | V 3.2 | Q 2.42 | A 3.44 | S 3.69 | I 3.11
L23: T 4.56 | Q 5.13 | E 4.17 | F 3.36 | H 4.73 | V 4.3 | M 4.55 | N 4.43 | S 3.93 | D 4.65 | I 4.02 | A 3.81 | R 4.29 | W 3.2 | K 5.07 | Y 2.99
G19: F 1.73 | V 3.18 | Y 3.25 | W 1.74 | I 3.18 | S 3.69 | P 3.29 | K 4.26 | C 3.57 | M 2.61 | A 3.48 | L 2.57 | Q 3.74 | H 3.99 | T 4.01 | R 4.27 | N 3.79 | E 4.04 | D 4.6
K24: R 3.35 | C 2.28 | G 3.52 | F 2.2 | S 2.9 | T 3.45 | Y 1.93 | M 3.11 | E 3.79 | L 2.18 | I 1.96 | N 3.52 | V 2.29 | H 3.07 | W 1.95 | D 3.51 | Q 3.27 | A 2.94
L22: A 4.86 | F 2.76 | G 4.02 | P 4.2 | C 3.78 | K 4.46 | D 4.71 | S 4.32 | M 4 | R 3.98 | N 4.57 | H 4.2 | Q 4.06 | E 4.3 | T 4.34 | Y 3.78 | V 4.14 | I 4.01
R18: W 2.58 | Y 3.58 | Q 4.37 | T 3.2 | M 3.03 | V 3.64 | L 3.39 | S 3.77 | K 4.05 | N 3.83 | P 4.26

Variants of: B2
Test: as above
Conditions: c terminus: a fixed tail appended

Protein stability index of substitutions, site by site:
K8: C 3.39 | A 2.54 | D 2.44 | P 2.35 | E 2.04 | G 2.38 | V 2.61 | M 2.75 | L 2.87 | N 2.22 | F 3.46 | Y 3.27 | S 3.15 | Q 2.13 | W 2.55 | T 2.43 | R 1.63 | H 2.64
N10: G 2.54 | H 2.71 | M 2.96 | K 2.14 | Q 1.87 | T 2.51 | V 2.92 | D 2.83 | R 1.85 | W 2.29 | C 2.2 | E 2.2 | A 2.09 | S 2.36 | P 1.68 | L 3.17 | I 2.88 | Y 2.75 | F 2.88
Y2: A 2.29 | V 2.59 | R 2.1 | C 2.17 | E 1.93 | G 2.52 | S 2.08 | I 1.68 | K 2.17 | P 1.74 | H 1.89 | L 2.15 | T 2.29 | Q 1.97 | F 3.47 | D 1.83 | M 1.24 | N 2.61 | W 2.26
V9: A 1.65 | K 2.37 | P 2.24 | C 2.68 | E 2.65 | G 2.3 | L 2.6 | R 1.86 | Q 2.87 | H 2.48 | N 2.23 | Y 2.06 | W 1.98 | D 1.8 | I 2.51 | M 2.54 | F 3.49 | S 2.58 | T 2.4
Y7: H 2.95 | P 2.98 | G 3.27 | Q 3.26 | I 2.21 | W 1.84 | C 3.12 | V 2.92 | D 2.49 | K 2.53 | A 3.17 | E 2.03 | R 1.55 | S 2.48 | N 2.89 | F 2.18 | L 2.35 | M 1.62 | T 2.19
L3: C 2.93 | G 2.92 | S 2.5 | M 2.5 | N 2.71 | P 3.5 | F 3.46 | D 3 | Q 2.94 | H 2.5 | Y 2.34 | V 2.34 | A 3.3 | E 1.45 | R 2.98 | T 2.7 | K 2.43 | I 3.32
R6: P 3.62 | S 2.94 | T 2.97 | N 3.2 | I 2.56 | W 2.51 | D 1.99 | Y 1.16 | G 2 | K 2.42 | V 2.92 | M 2.25 | L 2.11 | H 3.38 | C 2.86 | Q 2.34 | E 2.72 | A 2.7
T11: Y 3.51 | C 3.08 | R 2.57 | I 2.6 | P 1.8 | A 2.13 | K 2.21 | F 2.04 | Q 2.96 | G 2.28 | N 2.71 | V 2.5 | W 2.12 | D 2.63 | M 2.69 | E 2.27 | L 2.89 | S 2.65 | H 2.19
Q1: F 2.37 | P 1.77 | S 2.47 | W 2.68 | I 2.1 | C 3.23 | A 2.56 | H 1.53 | Y 2.86 | R 1.94 | K 2.27 | M 2.43 | D 3.23 | E 1.97 | L 2.23 | V 3.18 | N 2.15 | G 3.99 | T 2.71
P12: A 4.77 | H 3.1 | G 2.73 | K 1.74 | D 3.1 | I 3.44 | F 3.15 | E 2.52 | C 3.04
E5: L 2.72 | M 4.24 | S 2.14 | R 3.95 | V 4.14 | Q 2.72 | T 2.14 | Y 2.14 | C 3.78 | I 3.06 | G 2.03 | W 2.54 | F 3.74 | P 2.34 | A 3.18 | K 1.96 | D 2.88 | N 2.62 | H 3.1
A4: H 1.99 | M 3.1 | C 3.16 | F 1.83 | K 3.59 | Y 2.38 | T 3.02 | E 2.76 | Q 2.56 | G 3.01 | W 2.53 | N 3.76 | S 3.11 | I 2.65 | D 2.26 | L 3.42 | P 2.88 | R 2.53 | V 3.22
